From publication PMC3832594

Molecular target: MCT2 tagged at its N-terminus with CFP (rat) (UniProt Q63344)
Assay: FRET or BRET; live COS-7 cells co-transfected with MCT2-ECFP (N-terminal) and np55- or np65-EYFP (C-terminal), 48 h after transfection; 37°C, imaging buffer pH 7.4; ratio of emission at 480 nm to 530 nm on excitation at 430 nm (MCT2-CFP alone 1.33±0.016)

Sequence of MCT2 tagged at its N-terminus with CFP (rat) (Q63344 whole entry): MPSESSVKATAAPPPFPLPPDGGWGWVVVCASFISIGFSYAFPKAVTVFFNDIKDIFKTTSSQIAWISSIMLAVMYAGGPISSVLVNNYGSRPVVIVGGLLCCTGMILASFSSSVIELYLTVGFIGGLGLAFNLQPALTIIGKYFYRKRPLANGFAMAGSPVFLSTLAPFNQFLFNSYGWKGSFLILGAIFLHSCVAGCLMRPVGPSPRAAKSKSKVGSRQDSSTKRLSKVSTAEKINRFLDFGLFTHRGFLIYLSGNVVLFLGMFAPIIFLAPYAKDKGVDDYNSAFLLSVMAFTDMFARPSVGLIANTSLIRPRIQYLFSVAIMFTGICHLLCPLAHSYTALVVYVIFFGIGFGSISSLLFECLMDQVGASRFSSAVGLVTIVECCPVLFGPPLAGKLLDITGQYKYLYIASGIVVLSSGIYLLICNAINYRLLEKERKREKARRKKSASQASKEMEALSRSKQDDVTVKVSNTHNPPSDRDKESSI
Sequence of np55 C-terminally labelled with YFP (natural protein) (P97546 29-393): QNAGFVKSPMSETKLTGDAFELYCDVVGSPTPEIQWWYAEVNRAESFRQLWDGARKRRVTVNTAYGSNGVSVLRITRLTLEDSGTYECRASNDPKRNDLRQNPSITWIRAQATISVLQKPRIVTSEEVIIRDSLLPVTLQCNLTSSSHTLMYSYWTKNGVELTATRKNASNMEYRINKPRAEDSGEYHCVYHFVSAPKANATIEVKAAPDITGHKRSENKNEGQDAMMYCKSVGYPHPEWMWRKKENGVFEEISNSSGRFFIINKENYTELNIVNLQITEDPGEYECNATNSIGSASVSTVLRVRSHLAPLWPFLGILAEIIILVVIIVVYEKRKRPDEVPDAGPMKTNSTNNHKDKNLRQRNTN

480:530 nm fluorescence emission ratio (FRET): 0.797
Substance: np55 C-terminally labelled with YFP (natural protein)
